Data reported in patent US20250051463A1 (AstraZeneca / MedImmune, published 2025).

What was measured:
[1] = molecular target: T1, human CD123 (IL3Rα) on cells (human, UniProt P26951 19-378); test: flow cytometry on THP-1 CD123 (no dox) cells, Geo MFI
T1 construct: whole, on cells; also called human IL3Rα expressed on 293 cells; AD293hIL3Rα
Procedure: (§1) THP-1 cells were transfected with an IL3Rα expression construct under the control of a doxycycline inducible promoter. THP-1 cells were maintained in DMEM containing 10% heat-inactivated fetal bovine serum (FBS) and were cultured in a humidified atmosphere of 5% CO₂ and at a temperature of 37° C. […] (Dox) inducible cells were stimulated with 1 μg/ml dox overnight before use. […] On the day of plating, cells were spun down at 1500 rpm for 3 minutes, counted, and resuspended to a final concentration of 1×10⁶ cells/ml. Two hundred μl of cells were plated in wells of 96 well microtiter plates. The plates were spun down at 1500 rpm for 3 minutes and flicked to remove media. One hundred μl of FACS buffer (PBS+2% FBS) was added to each well. […] The antibody concentration started at 12 μg/ml followed by six 1:3 dilutions (no antibody control was also run). The plates were incubated at 4° C. for 30 minutes. Following incubation, the plates were washed 3 times by spinning down at 1500 rpm for 3 minutes, flicked and 100 μl of FACs buffer was added. Alexa 647 secondary antibody (goat anti-human IgG (H+L)) was added at 1:1000 dilution in 100 μl followed by 30 minute 4° C. incubation. The plates were washed as above. […] Cells were analyzed on a BD Bioscience LSRII by collecting 10,000 cells. Flow data was analyzed in FlowJo software.
Target sequence in this assay (P26951 19-378): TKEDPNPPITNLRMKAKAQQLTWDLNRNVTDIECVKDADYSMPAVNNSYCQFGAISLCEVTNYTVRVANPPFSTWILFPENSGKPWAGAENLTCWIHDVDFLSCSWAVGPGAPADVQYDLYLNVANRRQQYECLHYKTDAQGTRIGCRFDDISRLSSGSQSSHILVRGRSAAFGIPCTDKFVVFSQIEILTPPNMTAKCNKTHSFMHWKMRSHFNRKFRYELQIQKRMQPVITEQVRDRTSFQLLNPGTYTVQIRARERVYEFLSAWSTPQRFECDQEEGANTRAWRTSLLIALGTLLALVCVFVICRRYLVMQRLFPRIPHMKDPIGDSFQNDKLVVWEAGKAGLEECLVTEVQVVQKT

[2] = molecular target: T2, human IL3Rα (CD123), sample in solution for biolayer interferometry (human, UniProt P26951 19-305, limits assumed); test: biolayer interferometry (Octet RED384), antibody on AHC sensor, hIL3-Rα 10-0.16 µg/mL in solution, 1:1 fit
T2 construct: Soluble analyte in the Octet assay; also called hIL3-Rα; hIL3Rα
T2 sequence (looked up): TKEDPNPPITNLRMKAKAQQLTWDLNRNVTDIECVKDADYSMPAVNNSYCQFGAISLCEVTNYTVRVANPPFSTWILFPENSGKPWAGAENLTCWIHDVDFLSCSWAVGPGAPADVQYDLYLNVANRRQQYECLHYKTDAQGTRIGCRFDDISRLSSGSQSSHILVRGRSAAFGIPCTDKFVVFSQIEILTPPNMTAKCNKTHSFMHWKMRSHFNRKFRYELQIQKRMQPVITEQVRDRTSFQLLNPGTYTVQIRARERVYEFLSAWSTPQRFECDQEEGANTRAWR
Procedure: (§2) Biolayer interferometry binding experiments were performed using an Octet RED384 instrument, with all measurements made at 30° C. AHC biosensor probes were soaked in kinetics buffer (PBS pH 7.2+0.02% Tween-20, 0.1% BSA, 0.05% sodium azide) for 10 minutes, followed by baseline signal measurement in kinetics buffer for 60 seconds. […] For binding to hIL3-Rα, the antibody-loaded biosensor tips were dipped in binding buffer for 60 sec (baseline), followed by immersion in a solution containing dilutions of hIL3-Rα (10-0.16 μg/mL) for 300 sec (association), and subsequent immersion in kinetics buffer for 400 sec (dissociation). For binding to hIL5-Rα and GM-CSFRa, all steps were the same except the concentration of antigen was increased (50-1.56 μg/mL) and the dissociation step was decreased to 300 sec. The signal from a buffer only reference sample was subtracted, and all curves were fit with a 1:1 binding model to determine KD values.

[3] = molecular target: T1, human CD123 (IL3Rα) on cells; test: flow cytometry on THP-1 CD123(+dox) cells, Geo MFI
Procedure: as §1
Target sequence in this assay (P26951 19-378): as the sequence (P26951 19-378) above

[4] = molecular target: T1, human CD123 (IL3Rα) on cells; test: flow cytometry with Alexa 647 labelled antibody on Ad293 cells expressing human IL3Ra, geometric mean
Procedure: AD293 cells were maintained in DMEM (Dulbecco's Modified Eagle Medium) containing 10% heat-inactivated fetal bovine serum (FBS) and were cultured in a humidified atmosphere of 5% CO2 and at a temperature of 37° C. On the day of plating, cells were spun down at 1500 rpm for 3 minutes, counted, and resuspended to a final concentration of 0.3×10⁶ cells/ml. Two hundred μl of cells were plated to wells of 96 well microtiter plate. Plates were spun down at 1500 rpm for 3 minutes and flicked to remove media. One hundred μl of FACs buffer (PBS [Phosphate Buffer Saline]+2% FBS) was added to the wells. Plates were then spun again as above followed by addition of primary antibody in 100 μl of FACS buffer. […] Antibody concentration started at 12 μg/ml followed by six 1:3 dilutions (no antibody control was also run). Plates were incubated at 4° C. for 30 minutes. Following incubation plates were washed 3 times by spinning down at 1500 rpm for 3 minutes, flicked and 100 μl of FACS buffer were added. Following a final wash, 100 μl of FACS buffer containing live/dead DAPI (diamidino-2-phenylindole) stain was added to the plates. […] Flow data was analyzed in FlowJo software.

human IL-5Rα = molecular target: T3, human IL-5Rα (human, UniProt Q01344 21-342, limits assumed); test: biolayer interferometry, HT12-GL on the sensor, Sample ID: hIL5Ra-his in solution
T3 construct: Soluble analyte in the Octet assay; construct not described; also called hIL5-Rα; human IL-5Ra sample
T3 sequence (looked up): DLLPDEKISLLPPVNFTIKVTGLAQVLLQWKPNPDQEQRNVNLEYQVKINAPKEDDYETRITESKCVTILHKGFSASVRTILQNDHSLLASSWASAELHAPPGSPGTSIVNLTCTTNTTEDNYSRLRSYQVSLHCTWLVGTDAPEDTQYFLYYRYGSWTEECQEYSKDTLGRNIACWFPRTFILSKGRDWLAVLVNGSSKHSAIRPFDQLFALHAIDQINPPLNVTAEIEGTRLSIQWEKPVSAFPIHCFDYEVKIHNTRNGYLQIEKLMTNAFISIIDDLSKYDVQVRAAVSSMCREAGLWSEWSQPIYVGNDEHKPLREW
Procedure: as §2

[5] = molecular target: T4, cynomolgus IL3Rα (CD123), sample in solution for biolayer interferometry (cynomolgus); test: kinetic binding curves, antibody on the sensor, cyIL3Ra in solution; the sheet prints Temperature: 25 C
T4 construct: Soluble analyte in the Octet assay; construct not described; also called cynomolgus CD123 sample

B1: HT12-GL antibody (antibody, human IgG1, kappa, V domains shown)
VH: EVQLLESGGGLVQPGGSLRLSCAASGFTFNIYAMTWVRQAPGKGLEWVSGISAGGDSTYYADSVKGRFTISRDNSKNTLYLQMNSLRAEDTAVYYCAKDRGYYYGMDVWGQGTTVTVSS
VL: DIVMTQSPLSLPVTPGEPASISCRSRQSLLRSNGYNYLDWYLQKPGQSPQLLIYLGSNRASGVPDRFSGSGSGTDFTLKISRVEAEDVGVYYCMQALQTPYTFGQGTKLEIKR
notes: elsewhere unlabeled with a secondary antibody; also called HT12-GL mAb; CD123 mAb
EC50 (read off the curve) [1]: ~0.2 µg/mL | Kd [2]: 0.31 nM | EC50 (read off the curve) [3]: ~0.3 µg/mL | EC50 (read off the curve) [4]: ~1 µg/mL | binding result (human IL-5Rα): no binding | Kd [5]: 0.656 nM
